Results on 12 molecules are retold here after EP3583122A1 (dated 2019).

Test [1] has as its target BDBV GP on rVSV particles (Bundibugyo virus (BDBV)). Kind of test: cell-based or functional assay.
Test [2] addresses T1, TAFV GP on VSV pseudotype particles (Tai Forest virus (TAFV), UniProt Q66810 33-676).
T1 sequence: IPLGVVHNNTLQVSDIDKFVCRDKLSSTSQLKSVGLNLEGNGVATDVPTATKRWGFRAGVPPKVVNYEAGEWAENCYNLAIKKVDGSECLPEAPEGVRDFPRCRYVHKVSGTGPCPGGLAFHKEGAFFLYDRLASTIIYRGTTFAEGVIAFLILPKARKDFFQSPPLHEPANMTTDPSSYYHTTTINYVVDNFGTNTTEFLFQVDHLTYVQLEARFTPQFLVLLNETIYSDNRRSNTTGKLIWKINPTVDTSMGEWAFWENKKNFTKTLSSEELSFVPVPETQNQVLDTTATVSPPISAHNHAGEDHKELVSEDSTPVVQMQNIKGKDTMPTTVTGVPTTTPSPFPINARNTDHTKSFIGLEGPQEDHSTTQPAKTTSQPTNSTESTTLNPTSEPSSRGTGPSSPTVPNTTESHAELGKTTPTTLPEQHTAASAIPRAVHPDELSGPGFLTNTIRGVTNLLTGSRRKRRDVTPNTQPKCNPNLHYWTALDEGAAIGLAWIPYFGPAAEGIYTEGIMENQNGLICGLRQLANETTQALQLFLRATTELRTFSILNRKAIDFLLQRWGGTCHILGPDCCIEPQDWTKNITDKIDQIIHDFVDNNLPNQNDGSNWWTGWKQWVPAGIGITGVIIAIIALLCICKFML
Kind of test: cell-based or functional assay.

Test [3] addresses T2, EBOV GP on rVSV particles (Ebola virus (EBOV), UniProt Q05320 33-676).
T2 sequence: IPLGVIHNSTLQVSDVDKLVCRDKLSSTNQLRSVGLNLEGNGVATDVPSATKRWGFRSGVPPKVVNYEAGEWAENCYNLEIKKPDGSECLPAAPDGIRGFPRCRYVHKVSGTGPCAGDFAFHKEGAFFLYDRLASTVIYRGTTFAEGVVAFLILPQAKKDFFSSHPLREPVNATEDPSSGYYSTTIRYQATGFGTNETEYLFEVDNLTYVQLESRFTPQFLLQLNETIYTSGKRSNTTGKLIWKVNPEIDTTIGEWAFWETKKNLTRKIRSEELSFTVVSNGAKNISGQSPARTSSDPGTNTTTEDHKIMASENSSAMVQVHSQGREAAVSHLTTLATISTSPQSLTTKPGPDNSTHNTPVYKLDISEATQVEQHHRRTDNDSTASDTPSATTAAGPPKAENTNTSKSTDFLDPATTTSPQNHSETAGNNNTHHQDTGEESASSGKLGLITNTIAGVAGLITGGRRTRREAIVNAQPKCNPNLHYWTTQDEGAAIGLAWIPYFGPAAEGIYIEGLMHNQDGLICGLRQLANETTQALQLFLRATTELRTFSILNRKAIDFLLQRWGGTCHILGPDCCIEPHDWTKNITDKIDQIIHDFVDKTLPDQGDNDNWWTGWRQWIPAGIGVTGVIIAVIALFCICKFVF
Kind of test: cell-based or functional assay.

The target in test [4] is T3, RESTV GP on rVSV particles (Reston virus (RESTV), UniProt Q66799 34-677).
T3 sequence: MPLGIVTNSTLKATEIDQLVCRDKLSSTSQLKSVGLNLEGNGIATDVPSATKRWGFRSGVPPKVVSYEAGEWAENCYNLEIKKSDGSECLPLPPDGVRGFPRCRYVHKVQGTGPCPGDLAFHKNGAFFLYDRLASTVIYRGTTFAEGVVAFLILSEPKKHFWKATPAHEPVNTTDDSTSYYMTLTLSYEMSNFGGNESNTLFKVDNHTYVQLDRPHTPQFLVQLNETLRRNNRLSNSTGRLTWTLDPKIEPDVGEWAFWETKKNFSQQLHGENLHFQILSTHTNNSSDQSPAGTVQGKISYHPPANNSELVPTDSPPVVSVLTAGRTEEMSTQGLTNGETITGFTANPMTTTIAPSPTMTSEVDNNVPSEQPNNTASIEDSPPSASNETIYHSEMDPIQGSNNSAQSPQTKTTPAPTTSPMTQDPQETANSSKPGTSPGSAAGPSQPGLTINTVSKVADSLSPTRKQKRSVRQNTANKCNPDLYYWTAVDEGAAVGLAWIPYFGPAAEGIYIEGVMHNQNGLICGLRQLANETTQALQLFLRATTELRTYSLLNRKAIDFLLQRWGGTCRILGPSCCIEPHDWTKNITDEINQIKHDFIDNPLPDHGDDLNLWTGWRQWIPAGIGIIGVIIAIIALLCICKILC
Kind of test: cell-based or functional assay.

In test [5] the target is T4, SUDV GP on rVSV particles (Sudan virus (SUDV), UniProt Q66814 33-676).
T4 sequence: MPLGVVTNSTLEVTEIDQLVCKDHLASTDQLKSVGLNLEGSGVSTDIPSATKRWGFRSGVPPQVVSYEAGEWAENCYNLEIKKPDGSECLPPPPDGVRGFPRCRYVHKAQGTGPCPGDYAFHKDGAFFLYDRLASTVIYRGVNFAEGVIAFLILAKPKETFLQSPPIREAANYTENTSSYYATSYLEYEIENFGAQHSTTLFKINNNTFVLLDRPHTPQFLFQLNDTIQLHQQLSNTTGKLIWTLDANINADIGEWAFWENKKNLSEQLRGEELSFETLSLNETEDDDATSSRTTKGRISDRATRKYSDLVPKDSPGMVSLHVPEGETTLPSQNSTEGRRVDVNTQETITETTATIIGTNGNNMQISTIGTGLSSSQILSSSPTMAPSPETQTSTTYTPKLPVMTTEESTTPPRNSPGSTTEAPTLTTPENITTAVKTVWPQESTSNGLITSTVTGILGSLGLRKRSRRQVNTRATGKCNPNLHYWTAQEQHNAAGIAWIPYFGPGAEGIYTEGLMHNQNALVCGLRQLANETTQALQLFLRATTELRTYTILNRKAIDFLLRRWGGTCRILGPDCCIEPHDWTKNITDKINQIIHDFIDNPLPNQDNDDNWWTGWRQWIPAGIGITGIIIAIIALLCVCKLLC
Kind of test: cell-based or functional assay.

In test [6] the target is EBOV GPCL (cleaved soluble EBOV GP) (Ebola virus (EBOV), UniProt Q05320 33-650). Kind of test: BLI (OctetRed), IgG on anti-human Fc sensors, GPCL in solution, 1:1 fit.

Substitutions are numbered along the chain they refer to. Numbers in names are those of the source. Some results are limits rather than exact numbers.

B1: PE-87 H100A (antibody, V domains shown)
VH: QVQLVQSGVTLVQPGGSLRVSCAASGFTFSSYAMSWVRQAPGKGLEWVSAISGLGGSTYYADSVKGRFTISRDNSKNTLYLQMNSLRAEDTAVYYCAKDARVWAAGYHFDYWGQGALVTVSS
VL: DIVLTQSPSTLSASVGDRVTITCRASQSISSWLAWYQQKPGEAPKLLISDASSLESGVPSRFSGSGSGTEFTLTISSLQPDDFATYYCQQYYSSPTFGGGTKVEIK
On to B1, for which the “IC50, half-maximal neutralization of viral infectivity (rVSV-GP)” value (“IC50, half-maximal neutralization” below) in test [1] was found to be 0.4 nM; in test [2], 0.8 nM; in test [3], 1 nM; in test [4], 0.2 nM; in test [5] it was 1 nM.

B2: PE-87 H108A (antibody, V domains shown)
VH: B1 VH with A100H, H108A
VL: B1 VL
For B2, the “IC50, half-maximal neutralization” value in test [1] turned out to be 0.6 nM; in test [2] it was 2.2 nM; in test [3], 3.2 nM; in test [4], 0.5 nM; in test [5], 2.1 nM.

B3: PE-87 G106A (antibody, V domains shown)
VH: B1 VH with A100H, G106A
VL: B1 VL
As for B3, the “IC50, half-maximal neutralization” value stood at 0.4 nM in test [1]; 0.8 nM in test [2]; 0.8 nM in test [3]; 0.2 nM in test [4]; 0.9 nM in test [5].

B4: PE-87 D110A (antibody, V domains shown)
VH: B1 VH with A100H, D110A
VL: B1 VL
Consider B4, for which the “IC50, half-maximal neutralization” value was determined as 0.9 nM in test [1]; 2.1 nM in test [2]; 2 nM in test [3]; 0.4 nM in test [4]; 1.5 nM in test [5].

B5: PE-87 F109A (antibody, V domains shown)
VH: B1 VH with A100H, F109A
VL: B1 VL
Consider B5, for which the “IC50, half-maximal neutralization” value in test [1] was found to be 0.3 nM; in test [2], 2.8 nM; in test [3] it was 4.2 nM; in test [4], 0.4 nM; in test [5], 2.1 nM.

B6: PE-87 V102A (antibody, V domains shown)
VH: B1 VH with A100H, V102A
VL: B1 VL
Turning to B6, the “IC50, half-maximal neutralization” value turned out to be 0.2 nM in test [1]; 1 nM in test [2]; 0.6 nM in test [3]; 0.2 nM in test [4]; 1.1 nM in test [5].

B7: PE-87 D99A (antibody, V domains shown)
VH: B1 VH with D99A, A100H
VL: B1 VL
For the molecule B7, the “IC50, half-maximal neutralization” value is over 350 nM in test [2] and over 500 nM in test [3].

B8: mAb PE-87 (antibody, V domains shown)
VH: B1 VH with A100H
VL: B1 VL
For orientation: Kd means a measure of binding affinity in units of concentration. Take B8: the Kd in test [6] is under 0.001 nM.

B9: PE-87 W103A (antibody, V domains shown)
VH: B1 VH with A100H, W103A
VL: B1 VL
As to B9, the figures for the “IC50, half-maximal neutralization” value in test [1] and in test [2] were over 200 nM and over 150 nM, respectively.

B10: PE-87 Y107A (antibody, V domains shown)
VH: B1 VH with A100H, Y107A
VL: B1 VL
Consider B10, for which the “IC50, half-maximal neutralization” value in test [1] is 0.8 nM; in test [2], 0.8 nM; in test [3], 3 nM; in test [4], 1.3 nM; in test [5], over 350 nM.

B11: PE-87 R101A (antibody, V domains shown)
VH: B1 VH with A100H, R101A
VL: B1 VL
Consider B11, for which the “IC50, half-maximal neutralization” value in test [1] is 0.4 nM; in test [2] it was 1.9 nM; in test [3], 3.2 nM; in test [4], 0.2 nM; in test [5], 1.5 nM.

B12: PE-87 Y111A (antibody, V domains shown)
VH: B1 VH with A100H, Y111A
VL: B1 VL
In the case of B12, the “IC50, half-maximal neutralization” value worked out at 0.4 nM in test [1]; 1.1 nM in test [2]; 0.8 nM in test [3]; 0.1 nM in test [4]; 0.8 nM in test [5].
